Laboratory results reported in patent US20040001822A1, “Y1-isolated molecules comprising epitopes containing sulfated moieties, antibodies to such epitopes, and uses thereof” (priority 2000, published 2004).

Legend:
washed platelets = assay: Effect of Y1-IgG on agglutination of washed platelets with or without ristocetin; type: cell-based, human; conditions: IgG 1 μg/ml
Source text: Due to its natural structure the full IgG Y1 has two binding sites on GPIbα and one binding site for an Fc receptor. It is likely that if full IgG Y1 binds two GPIbα molecules, it will activate platelets and induce platelet agglutination. Furthermore, because platelets have an Fc-receptor, Y1-IgG can induce platelet agglutination by binding to GPIbα and to an Fc-receptor, thereby producing platelet agglutination by each IgG Y1 binding to three platelets. Therefore, the effect of IgG Y1 on aggregation of washed platelets was tested at different concentrations of Y1-IgG in the presence or absence of ristocetin. Induction of platelet aggregation by Y1-IgG was monitored for 4 min at 37° C., followed by addition of ristocetin.
The results are presented in Table 6 and FIG. 17 without agonist. Y1-IgG alone at a final concentration of 50 μg/ml induced platelet agglutination ˜39% of normal agglutination of washed platelets. Induction of platelet agglutination by Y1-IgG was tested for 4 min at 37° C., followed by addition of ristocetin. […]
For platelet aggregation studies, platelet rich plasma (PRP) and washed platelets were stirred at 500 rpm at 37° C. in whole blood Lumiaggregometer (Chronolog, Havertown,Pa.). […] The effect of Y1 on platelet aggregation was evaluated by addition of different concentration of Y1 before the addition of agonist, and the effect was recorded for four minutes.

primary leukemia cells = assay: FACS binding of Y1 to primary leukemia cells of patients; set-up: species or system human
Procedure: (§1) Samples provided from hospitals. Patients sample 30 μl/tube. Add 5 μl/tube of CD33-APC (for AML) or CD19-APC (for B-CLL) or CD38-APC (for Multiple Myeloma). Add 5 μl/tube of CD45-PerCp and 5 μl of scFv-Y1 or control scFv-N31 or CD162-PE (KPL1). Incubate tubes 30 minutes at 4° C. with low shaking. Wash by adding 2 ml PBS and spin 5 minutes at 1200 rpm. Discard supernatant.
(§2) For a one step assay continue with the lysis step:
(§3) Add 500 μl BD Lysine solution diluted 1:10 with ddH2O (300 μl to patient sample). Vortex at high speed and incubate 12 minutes at 4° C. Wash as above. Discard supernatant. And add 500 μl PBS. The samples are read in the FACS using blood sample acquisition setup according to international standards.
(§4) For two or more assays: working buffer is PBS+1% BSA+0.05% sodium azide. Incubations and wash as above.
(§5) Lysis of the red blood cells is the final step in the assay, followed by resuspension with 500 μl PBS.

Leukemia Cells = assay: FACS of leukemia samples: anti-CD162 versus Y1; type: binding, human; conditions: 12 patient samples of Table 11
Procedure: Analysis of binding of scFv Y1 antibodies and anti-CD162 antibodies to diseased cells also illustrates that scFv Y1 has binding characteristics different from those of anti-CD162 antibodies. […] (Table F). Y1 binds to the leukemic cells in 10 of 12 samples. In contrast, anti-CD162 bound only 5 out of 12 samples. […] Thus, it may be concluded that, in leukemic cells, scFv Y1 binds to a ligand other than that recognized by anti-CD162.
as §1, §2, §3, §4, §5

[1] = target: T1, natural human platelet derived glycocalicin (Homo sapiens, UniProt P07359); assay: Western blot on natural human platelet derived glycocalicin; type: binding; conditions: semi-purified human platelet derived glycocalicin
T1 construct: glycocalicin (soluble, extracellular fragment of GPIbα); from tissue; host or cells: human platelets
Procedure: (§6) The DNA fragment encoding for glycocalicin (GC, amino acid 1 to amino acid 493 of GPIbα ) was cloned into an IPTG inducible prokaryotic vector cassette. E. coli (BL21 DE3) cells harboring the newly constructed plasmid were grown at 37° C. to O.D. 0.7-0.8, than at 37° C. for 3 hours for in the presence of IPTG for induction.
(§7) SDS-polyacrylamide gel loaded either with semi-purified human platelet derived glycocalicin (“GC”) or with E. coli cell lysates (“total”) derived from induced and non-induced cells were analyzed. Western blot analysis was performed with biotinylated Y1-scfv, polyclonal rabbit anti-human glycocalicin antibody, commercially available mouse anti-human CD42 monoclonal antibody (SZ2 Immunotech, PM640 Serotec, HIP1 Pharmigen, AN51 DAKO), and polyclonal antibody against the N-terminus of GPIbα (Sc-7071, Santa Cruz).
(§8) The DNA fragment encoding the N-terminal soluble part of human platelet GP1b-glycocalicin (GC, amino acid 1 to amino acid 493) was cloned into an IPTG inducible prokaryotic vector cassette. E. coli (BL21 DE3) cells harboring the newly constructed plasmid were grown at 37° C. to O.D. 0.7-0.8, than at 37° C. for 3 hours for in the presence of IPTG for induction. SDS-polyacrylamide gel loaded either with semi-purified human platelet derived GC or with E. coli cell lysates (total protein content) derived from induced and non-induced cells were analyzed. […]

[2] = target: T2, recombinant bacterial derived glycocalicin (Homo sapiens, UniProt P07359); assay: Western blot on recombinant glycocalicin expressed in E. coli; type: binding; conditions: E. coli cell lysates
T2 construct: GC, amino acid 1 to amino acid 493 of GPIbα; made in house; host or cells: E. coli BL21 DE3 (total cell lysate loaded on the gel)
Procedure: as §6, §7, §8

B1: Y1 scFv: fully human scFv clone binding platelets and myelogenous leukemia cells, SEQ ID NO: 25 (protein, listed as Homo sapiens)
scFv: MKYLLPTAAAGLLLLAAQPAMAEVQLVESGGGVVRPGGSLRLSCAASGFTFDDYGMSWVRQAPGKGLEWVSGINWNGGSTGYADSVKGRFTISRDNAKNSLYLQMNSLRAEDTAVYYCARMRAPVIWGQGTLVTVSRGGGGSGGGGSGGGGSSELTQDPAVSVALGQTVRITCQGDSLRSYYASWYQQKPGQAPVLVIYGKNNRPSGIPDRFSGSSSGNTASLTITGAQAEDEADYYCNSRDSSGNHVVFGGGTKLTVLGAAAEQKLISEEDLNGAA
Washed platelets
  % agglutination Without ristocetin: no induction
Primary leukemia cells; patients with AML
  % Positive: 80%
  Number Positive: 60/75
Primary leukemia cells; patients with B-Leukemia
  % Positive: 67%
  Number Positive: 29/43
Primary leukemia cells; patients with Multiple Myeloma
  % Positive: 100%
  Number Positive: 16/16
Leukemia Cells
  leukemia samples whose leukemic cells are bound: 10 of 12
[1]
  recognition in Western blot: recognized
[1]; listed as scFv Y1
  recognition in Western blot: recognized only the natural human derived GC
[2]
  recognition in Western blot: did not recognize
